Measurements as given in publication PMC5372246, “Co-production of hydrogen and ethanol from glucose in Escherichia coli by activation of pentose-phosphate pathway through deletion of phosphoglucose isomerase (pgi) and overexpression of glucose-6-phosphate dehydrogenase (zwf) and 6-phosphogluconate dehydrogenase (gnd)” (Biotechnology for Biofuels, 2017).

System: T1, NC(=O)c1ccc[n+]([C@@H]2O[C@H](COP(=O)(O)OP(=O)(O)OC[C@H]3O[C@@H](n4cnc5c(N)ncnc54)[C@H](OP(=O)(O)O)[C@@H]3O)[C@@H](O)[C@H]2O)c1
T1 construct: full-length, C-terminal His-tag, Ni-NTA purified from E. coli, 55 kDa on SDS-PAGE
Assay: purified protein
Format: biochemical, Escherichia coli
Conditions: co-substrate glucose-6-phosphate, general assay: Tris-HCl pH 7.5, 1 mM MgCl2, 30 °C

Zwf (ZE), glucose-6-phosphate dehydrogenase (Escherichia coli K-12)
Km: 15 µM
